Tests used:
[1] = Peptide content (assay) of lyophilized drug product by UPLC-UV at 220 nm, method according to the invention (USP reserpine reference standard, RRF); assay type: physicochemical; conditions: method according to the invention (USP RS)
From the text: The UPLC method similar to Example 1 was used for the quantification of analytes (i.e. the individual peptides) in mixtures DP-5P (SEQ ID NO: 1-5) and DP-7P (SEQ ID NO: 6-12) and for the determination of content uniformity of mixtures DP-5P and DP-7P (lyophilized product). The method is based on the use of an external reference standard. The relative response factor (ratio of molar extinction coefficients, RRF) against this external reference standard has been established for each peptide. The purity, individual related substances, and the assay of DP-5P and DP-7P were determined by reversed phase rapid HPLC (UPLC) using a mobile phase gradient of ACN/IPA and water and UV detection at λ220 nm.
The following lyophilized peptide compositions were used: DP-5P comprising peptides represented herein by SEQ ID NO: 1-5 admixed at equal net weights of 0.40 mg of each peptide per vial (total amount of protein per vial being 2.00 mg) and 0.56 mg TFA per vial; and DP-7P comprising peptides represented herein by SEQ ID NO: 6-12 admixed at equal net weights of 0.40 mg of each peptide per vial (total amount of protein per vial being 2.80 mg) and 0.96 mg TFA per vial. The following chemicals were used: Acetonitrile, (Biosolve, 01204102); UPLC water, (Type 1, milli-Q); trifluoroacetic acid, (Chem Lab, CLoo.2094.0001), 2-propanol, (UPLC/MS grade, Biosolve, 16264102); Reserpine, (USP, Sigma Aldrich, 1601000). The following equipment was used: QuanRecovery vials, (Waters, 186009186); UPLC pump equipped with a gradient system, autosampler, and UV detection (Waters Acquity or equivalent) and mixer volume 425 μL.
• Mobile phase A: 0.1% (v/v) TFA in water • Mobile phase B: 0.1% (v/v) TFA in 70/30 ACN/IPA • Diluent A: 0.05% (v/v) TFA in water • Diluent B: 0.05% (v/v) TFA in ACN • Blank solution: 80/20 (v/v) diluent A/diluent B • Purge solvent: 80/20 (v/v) water/ACN • Needle wash: 0.05% (v/v) TFA in 80/20 (v/v) water/ACN
5.00 mg Reserpine reference material was accurately weighed and added into a 50 mL volumetric flask. 40.0 mL of blank solution was added, by means of a volumetric pipette. The solution was stirred for 10 min, by means of a magnetic stirrer, until fully dissolved. The solution was diluted to volume with blank solution and mixed well.
Transfer of 2.0 mL, by means of a volumetric pipette, of stock reference solution 1 into a 20 mL volumetric flask. Diluted to volume with blank solution and homogenized.
This sample preparation was setup for lyophilized products DP-5P and DP-7P in an initially sealed container. Before opening and dissolving the drug product, the vials were equilibrated at room temperature for at least 1 hour. The content of the vial was dissolved with 0.8 mL of diluent B, and stirred for 20 min, using a magnetic stirrer. 3.2 mL of diluent A were added. The solution was stirred well for 20 min, using a magnetic stirrer. After dissolving the content of the vial, the sample vial was kept on the lab bench for 30 minutes. The solution was stirred briefly and transferred into an HPLC vial.
• Column: Advance Bio Peptide Map (2.7 μm, 250 x 2.1 mm) • Sample matrix 0.05%v/v TFA in ACN : water (1:4 v/v) • Sample concentration 100 μg/mL net peptide (of each drug substance), duplicate • Injection volume: 10 μL • Column temperature: 40° C. • Sample temperature: 5° C. • Detection: UV (λ=220 nm) • Flow rate: 0.2 mL/min • Run time: 65 min • Purge solvent: 80/20 (v/v) water/ACN • Needle wash: 0.05% (v/v) TFA in 80/20 water/ACN (v/v) (20 s) • Seal wash: 90/10 (v/v) water/MeOH • Elution mode: Gradient elution • Eluent A: 0.1%v/v TFA in water • Eluent B: 0.1%v/v TFA in ACN/IPA (70:30 v/v)
The RRF was determined for all 12 peptides, enabling the quantification of each peptide against a reserpine as shown above. For the determination, the absorbance of each peptide in a solution comprising said peptide at a known concentration, and of a reference standard solution comprising reserpine at a known concentration, were measured at 220 nm. […]

[2] = Peptide content (assay) of lyophilized drug product by UPLC-UV at 220 nm, conventional method (peptide as reference standard); assay type: physicochemical; conditions: conventional method (peptide as RS)
Method: The purity including individual related substances and the assay of a DP-5P (5 peptides, SEQ ID NOs: 1-5) and DP-7P (7 peptides, SEQ ID NOs: 6-12) mixture were determined by reversed phase rapid HPLC (UPLC) using a mobile phase gradient of acetonitrile and water and UV detection at λ=220 nm.
• Column: RP C18, e.g. Waters Acquity, BEH 130 PST (1.7 μm, 150×2.1 mm) • Sample matrix Eluent A : Eluent B=85:15 (v/v). • Sample concentration 100 μg/mL net peptide (of each drug substance mixture), duplicate • Injection volume: 5 μL • Column temperature: 65° C. • Sample temperature: 5° C. • Detection: UV (λ=220 nm) • Flow rate: 0.3 mL/min • Eluent A: 0.05%v/v TFA and 1%v/v Acetonitrile (ACN) in water • Eluent B: 0.05%v/v TFA in ACN
The relative retention times (RRTs) assigned to peptides and related substances both in a DP-5P (SEQ ID NO: 1-5) and DP-7P (SEQ ID NO: 6-12) mixture was calculated with reference to the retention time of the peptide eluting in the middle (FIG. 1 and FIG. 2). That retention time was used as reference as the main peak of this drug substance was detected approx. in the center of the chromatogram. The related substances were determined by area normalization. The individual related substances were reported≥0.10%a/a. The total related substances were calculated as the sum of all individual related substances equal to or greater than a disregard limit of 0.0500%a/a. The purity was calculated as the difference between total related substances and 100%.
The assay of each of the peptides was calculated against a reference standard solution containing either five peptides (DP-5P) or seven peptides (DP-7P) and was expressed in percent and in mg net peptide/vial. For this reference method, the absorption ratio between the reference substance and the analyte is 1, because the reference substance is the analyte itself.
At T=0 months (TOM) the peptide content was measured using the conventional method of Example 2. From T=48 months (T48M) onwards the peptide content was measured with the conventional method of Example 2 and the method according to the invention of Example 3.

Sequence | Assay (mg/vial) ([1]; DP-5P batch, T48M) | Label claim (% target 0.40 mg/vial) ([1]; DP-5P batch, T48M) | Assay (mg/vial) ([1]; DP-5P batch, T54M) | Label claim (% target 0.40 mg/vial) ([1]; DP-5P batch, T54M) | Assay (mg/vial) ([1]; DP-5P batch, T60M) | Label claim (% target 0.40 mg/vial) ([1]; DP-5P batch, T60M) | Assay (mg/vial) ([2]; DP-5P batch, T0M) | Label claim (% target 0.40 mg/vial) ([2]; DP-5P batch, T0M) | Assay (mg/vial) ([2]; DP-5P batch, T48M) | Label claim (% target 0.40 mg/vial) ([2]; DP-5P batch, T48M) | Assay (mg/vial) ([2]; DP-5P batch, T54M) | Label claim (% target 0.40 mg/vial) ([2]; DP-5P batch, T54M) | Assay (mg/vial) ([2]; DP-5P batch, T60M) | Label claim (% target 0.40 mg/vial) ([2]; DP-5P batch, T60M) | Assay (mg/vial) ([1]; DP-7P batch, T48M) | Label claim (% target 0.40 mg/vial) ([1]; DP-7P batch, T48M) | Assay (mg/vial) ([1]; DP-7P batch, T54M) | Label claim (% target 0.40 mg/vial) ([1]; DP-7P batch, T54M) | Assay (mg/vial) ([1]; DP-7P batch, T60M) | Label claim (% target 0.40 mg/vial) ([1]; DP-7P batch, T60M) | further results
MHGDTPTLHEYMLDLQPETTDLYCYEQLNDSSEEE [Peptide 3] | 0.3798 mg/vial | 95% | 0.3789 mg/vial | 95% | 0.3883 mg/vial | 97% | 0.3942 mg/vial | 99% | 0.4311 mg/vial | 108% | 0.4194 mg/vial | 105% | 0.4170 mg/vial | 104% | – | – | – | – | – | – | –
YGTTLEQQYNKPLCDLLIRCINCQKPLCPEEK (Peptide 12) | – | – | – | – | – | – | – | – | – | – | – | – | – | – | 0.4132 mg/vial | 103% | 0.4034 mg/vial | 101% | 0.4010 mg/vial | 100% | Assay (mg/vial) ([2]; DP-7P batch, T0M): 0.4261 mg/vial; Label claim (% target 0.40 mg/vial) ([2]; DP-7P batch, T0M): 107%; Assay (mg/vial) ([2]; DP-7P batch, T48M): 0.4323 mg/vial; Label claim (% target 0.40 mg/vial) ([2]; DP-7P batch, T48M): 108%; Assay (mg/vial) ([2]; DP-7P batch, T54M): 0.4215 mg/vial; Label claim (% target 0.40 mg/vial) ([2]; DP-7P batch, T54M): 105%; Assay (mg/vial) ([2]; DP-7P batch, T60M): 0.4219 mg/vial; Label claim (% target 0.40 mg/vial) ([2]; DP-7P batch, T60M): 105%
LPQLCTELQTTIHDIILECVYCKQQLLRREVY (Peptide 9) | – | – | – | – | – | – | – | – | – | – | – | – | – | – | 0.3901 mg/vial | 98% | 0.3718 mg/vial | 93% | 0.3700 mg/vial | 93% | Assay (mg/vial) ([2]; DP-7P batch, T0M): 0.4328 mg/vial; Label claim (% target 0.40 mg/vial) ([2]; DP-7P batch, T0M): 108%; Assay (mg/vial) ([2]; DP-7P batch, T48M): 0.4325 mg/vial; Label claim (% target 0.40 mg/vial) ([2]; DP-7P batch, T48M): 108%; Assay (mg/vial) ([2]; DP-7P batch, T54M): 0.4262 mg/vial; Label claim (% target 0.40 mg/vial) ([2]; DP-7P batch, T54M): 107%; Assay (mg/vial) ([2]; DP-7P batch, T60M): 0.4361 mg/vial; Label claim (% target 0.40 mg/vial) ([2]; DP-7P batch, T60M): 109%
TLRLCVQSTHVDIRTLEDLLMGTLGIVCPICSQKP (Peptide 5) | 0.4028 mg/vial | 101% | 0.4021 mg/vial | 101% | 0.3968 mg/vial | 99% | 0.3976 mg/vial | 99% | 0.4107 mg/vial | 103% | 0.3948 mg/vial | 99% | 0.4011 mg/vial | 100% | – | – | – | – | – | – | –

Reference: patent US20230296569A1, “Substance quantification in complex mixtures” (ISA Pharmaceuticals B.V., priority 2021, published 2023)
